US20100158922A1 (published 2010)

Target: T1, recombinant human IFNγ (human, UniProt P01579 24-166)
T1 chain: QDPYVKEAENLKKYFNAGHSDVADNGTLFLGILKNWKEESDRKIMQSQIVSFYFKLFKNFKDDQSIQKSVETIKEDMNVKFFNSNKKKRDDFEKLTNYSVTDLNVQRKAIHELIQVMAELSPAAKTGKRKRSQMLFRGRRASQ
Assay: SPR (Biacore)

Kd: 0.732 nM
B1: NI-0501 (antibody, V domains shown)
VH: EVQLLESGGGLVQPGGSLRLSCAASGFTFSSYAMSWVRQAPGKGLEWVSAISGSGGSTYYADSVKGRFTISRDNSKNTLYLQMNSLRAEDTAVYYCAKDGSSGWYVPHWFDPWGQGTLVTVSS
VL: NFMLTQPHSVSESPGKTVTISCTRSSGSIASNYVQWYQQRPGSSPTTVIYEDNQRPSGVPDRFSGSIDSSSNSASLTISGLKTEDEADYYCQSYDGSNRWMFGGGTKLTVL
